Source: paper PMC2958111

Biological target: VEGF receptor 2 (UniProt P35968)
Test: ELISA; VEGFR1 or VEGFR2 (200 ng/well) covalently attached with ethyl-carbodiimide to an amino-acid-coated 96-well plate; VEGF-A (200 ng/ml) applied alone or mixed with heparin, HS or porcine ocular fluid, 4°C overnight; washed with ice-cold PBS; bound VEGF-A measured with components of a human VEGF ELISA kit; values relative to controls (%)

Sequence of UniProt P35968 (P35968 20-764): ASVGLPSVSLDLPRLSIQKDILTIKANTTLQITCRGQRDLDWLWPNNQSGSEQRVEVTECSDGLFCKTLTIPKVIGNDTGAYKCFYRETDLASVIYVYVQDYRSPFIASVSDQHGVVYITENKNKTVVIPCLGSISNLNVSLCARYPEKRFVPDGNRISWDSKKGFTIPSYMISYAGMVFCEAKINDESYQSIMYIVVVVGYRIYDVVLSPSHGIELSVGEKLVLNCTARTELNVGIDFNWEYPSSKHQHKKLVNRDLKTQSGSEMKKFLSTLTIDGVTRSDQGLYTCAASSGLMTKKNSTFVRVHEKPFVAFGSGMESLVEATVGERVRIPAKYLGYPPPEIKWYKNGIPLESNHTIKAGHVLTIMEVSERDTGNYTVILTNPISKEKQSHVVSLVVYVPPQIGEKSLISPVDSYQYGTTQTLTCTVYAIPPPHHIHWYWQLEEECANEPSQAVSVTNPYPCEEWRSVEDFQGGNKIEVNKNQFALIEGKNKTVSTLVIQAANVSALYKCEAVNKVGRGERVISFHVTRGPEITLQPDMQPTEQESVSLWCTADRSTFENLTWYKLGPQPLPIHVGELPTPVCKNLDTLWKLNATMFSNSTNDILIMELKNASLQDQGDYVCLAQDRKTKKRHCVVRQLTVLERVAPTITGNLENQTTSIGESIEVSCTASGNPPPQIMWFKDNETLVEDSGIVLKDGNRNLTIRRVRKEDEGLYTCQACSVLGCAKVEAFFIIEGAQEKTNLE

percent reduction of binding with 1,000 µg/ml soluble heparin [%] | percent inhibition of binding by 1,000 µg/ml of HS from bovine kidney [%] | percent inhibition of binding by porcine ocular fluid (63.2 µg/ml of HS) [%] | Substance
9.4 |  |  | vascular endothelial growth factor-A, VEGF121 isoform (ligand)
59.8 | 88.1 | 85.7 | vascular endothelial growth factor-A, VEGF165 isoform (ligand)
